{
  "source": "the Human Domainome abundance scans (Beltran et al. 2025)",
  "parents": {"B1": {"name": "DnaJ homolog subfamily C member 5, residues 16 to 77; numbered along this chain, Q9H3Z4 (parent)", "chain": "LYHVLGLDKNATSDDIKKSYRKLALKYHPDKNPDNPEAADKFKEINNAHAILTDATKRNIYD"}},
  "note": "± gives the uncertainty stated by the source.",
  "data": [
    {"variants_of": "B1", "experiment": "abundance fitness (aPCA) (normalised: wild type 0, dead -1); higher = more abundant; growth selection in yeast, the domain comes from the species named", "details": "Homo sapiens", "values": [
      {"variant": "LYHVLGLDKNATSDDIKKAYRKLALKYHPDKNPDNPEAADKFKEINNAHAILTDATKRNIYD", "note": "[S19A]", "abundance fitness": "0.02 ± 0.078"},
      {"variant": "LYHVLGLDKNATSDDIKKGYRKLALKYHPDKNPDNPEAADKFKEINNAHAILTDATKRNIYD", "note": "[S19G]", "abundance fitness": "-0.3 ± 0.065"},
      {"variant": "LYHVLGLDKNATSDDIKKIYRKLALKYHPDKNPDNPEAADKFKEINNAHAILTDATKRNIYD", "note": "[S19I]", "abundance fitness": "-0.762 ± 0.4"},
      {"variant": "LYHVLGLDKNATSDDIKKCYRKLALKYHPDKNPDNPEAADKFKEINNAHAILTDATKRNIYD", "note": "[S19C]", "abundance fitness": "-0.088 ± 0.12"},
      {"variant": "LYHVLGLDKNATSDDIKKYYRKLALKYHPDKNPDNPEAADKFKEINNAHAILTDATKRNIYD", "note": "[S19Y]", "abundance fitness": "-0.299 ± 0.2"},
      {"variant": "LYHVLGLDKNATSDDIKKTYRKLALKYHPDKNPDNPEAADKFKEINNAHAILTDATKRNIYD", "note": "[S19T]", "abundance fitness": "-0.106 ± 0.12"},
      {"variant": "LYHVLGLDKNATSDDIKKQYRKLALKYHPDKNPDNPEAADKFKEINNAHAILTDATKRNIYD", "note": "[S19Q]", "abundance fitness": "0.042 ± 0.12"},
      {"variant": "LYHVLGLDKNATSDDIKKDYRKLALKYHPDKNPDNPEAADKFKEINNAHAILTDATKRNIYD", "note": "[S19D]", "abundance fitness": "-0.485 ± 0.19"},
      {"variant": "LYHVLGLDKNATSDDIKKSYRKLDLKYHPDKNPDNPEAADKFKEINNAHAILTDATKRNIYD", "note": "[A24D]", "abundance fitness": "-0.552 ± 0.15"},
      {"variant": "LYHVLGLDKNATSDDIKKSYRKLRLKYHPDKNPDNPEAADKFKEINNAHAILTDATKRNIYD", "note": "[A24R]", "abundance fitness": "-0.041 ± 0.059"},
      {"variant": "LYHVLGLDKNATSDDIKKSYRKLCLKYHPDKNPDNPEAADKFKEINNAHAILTDATKRNIYD", "note": "[A24C]", "abundance fitness": "0.159 ± 0.074"},
      {"variant": "LYHVLGLDKNATSDDIKKSYRKLQLKYHPDKNPDNPEAADKFKEINNAHAILTDATKRNIYD", "note": "[A24Q]", "abundance fitness": "-0.093 ± 0.076"},
      {"variant": "LYHVLGLDKNATSDDIKKSYRKLGLKYHPDKNPDNPEAADKFKEINNAHAILTDATKRNIYD", "note": "[A24G]", "abundance fitness": "-0.377 ± 0.075"},
      {"variant": "LYHVLGLDKNATSDDIKKSYRKLSLKYHPDKNPDNPEAADKFKEINNAHAILTDATKRNIYD", "note": "[A24S]", "abundance fitness": "0.044 ± 0.058"},
      {"variant": "LYHVLGLDKNATSDDIKKSYRKLTLKYHPDKNPDNPEAADKFKEINNAHAILTDATKRNIYD", "note": "[A24T]", "abundance fitness": "0.002 ± 0.064"},
      {"variant": "LYHVLGLDKNATSDDIKKSYRKLMLKYHPDKNPDNPEAADKFKEINNAHAILTDATKRNIYD", "note": "[A24M]", "abundance fitness": "-0.028 ± 0.12"},
      {"variant": "LYHVLGLDKNATSDDIKKSYRKLILKYHPDKNPDNPEAADKFKEINNAHAILTDATKRNIYD", "note": "[A24I]", "abundance fitness": "0.086 ± 0.096"},
      {"variant": "LYHVLGLDKNATSDDIKKSYRKLWLKYHPDKNPDNPEAADKFKEINNAHAILTDATKRNIYD", "note": "[A24W]", "abundance fitness": "0.245 ± 0.084"},
      {"variant": "LYHVLGLDKNATSDDIKKSYRKLPLKYHPDKNPDNPEAADKFKEINNAHAILTDATKRNIYD", "note": "[A24P]", "abundance fitness": "-0.449 ± 0.1"},
      {"variant": "LYHVLGLDKNATSDDIKKSYRKLVLKYHPDKNPDNPEAADKFKEINNAHAILTDATKRNIYD", "note": "[A24V]", "abundance fitness": "0.126 ± 0.068"},
      {"variant": "LYHVLGLDKNATSDDIKKSYRKLYLKYHPDKNPDNPEAADKFKEINNAHAILTDATKRNIYD", "note": "[A24Y]", "abundance fitness": "0.208 ± 0.091"},
      {"variant": "LYHVLGLDKNATSDDIKKSYRKLLLKYHPDKNPDNPEAADKFKEINNAHAILTDATKRNIYD", "note": "[A24L]", "abundance fitness": "-0.095 ± 0.058"},
      {"variant": "LYHVLGLDKNATSDDIKKSYRKLELKYHPDKNPDNPEAADKFKEINNAHAILTDATKRNIYD", "note": "[A24E]", "abundance fitness": "0.028 ± 0.099"},
      {"variant": "LYHVLGLDKNATSDDIKKSYRKLKLKYHPDKNPDNPEAADKFKEINNAHAILTDATKRNIYD", "note": "[A24K]", "abundance fitness": "-0.034 ± 0.057"},
      {"variant": "LYHVLGLDKNATSDDIKKSYRKLFLKYHPDKNPDNPEAADKFKEINNAHAILTDATKRNIYD", "note": "[A24F]", "abundance fitness": "0.213 ± 0.1"},
      {"variant": "LYHVLGLDKNATSDDIKKSIRKLALKYHPDKNPDNPEAADKFKEINNAHAILTDATKRNIYD", "note": "[Y20I]", "abundance fitness": "-0.603 ± 0.29"},
      {"variant": "LYHVLGLDKNATSDDIKKSTRKLALKYHPDKNPDNPEAADKFKEINNAHAILTDATKRNIYD", "note": "[Y20T]", "abundance fitness": "-0.236 ± 0.072"},
      {"variant": "LYHVLGLDKNATSDDIKKSLRKLALKYHPDKNPDNPEAADKFKEINNAHAILTDATKRNIYD", "note": "[Y20L]", "abundance fitness": "-0.505 ± 0.065"},
      {"variant": "LYHVLGLDKNATSDDIKKSVRKLALKYHPDKNPDNPEAADKFKEINNAHAILTDATKRNIYD", "note": "[Y20V]", "abundance fitness": "-0.28 ± 0.055"},
      {"variant": "LYHVLGLDKNATSDDIKKSKRKLALKYHPDKNPDNPEAADKFKEINNAHAILTDATKRNIYD", "note": "[Y20K]", "abundance fitness": "-0.27 ± 0.14"},
      {"variant": "LYHVLGLDKNATSDDIKKSWRKLALKYHPDKNPDNPEAADKFKEINNAHAILTDATKRNIYD", "note": "[Y20W]", "abundance fitness": "0.329 ± 0.075"},
      {"variant": "LYHVLGLDKNATSDDIKKSQRKLALKYHPDKNPDNPEAADKFKEINNAHAILTDATKRNIYD", "note": "[Y20Q]", "abundance fitness": "0.015 ± 0.13"},
      {"variant": "LYHVLGLDKNATSDDIKKSMRKLALKYHPDKNPDNPEAADKFKEINNAHAILTDATKRNIYD", "note": "[Y20M]", "abundance fitness": "-0.414 ± 0.089"},
      {"variant": "LYHVLGLDKNATSDDIKKSFRKLALKYHPDKNPDNPEAADKFKEINNAHAILTDATKRNIYD", "note": "[Y20F]", "abundance fitness": "0.191 ± 0.12"},
      {"variant": "LYHVLGLDKNATSDDIKKSHRKLALKYHPDKNPDNPEAADKFKEINNAHAILTDATKRNIYD", "note": "[Y20H]", "abundance fitness": "0.109 ± 0.25"},
      {"variant": "LYHVLGLDKNATSDDIKKSDRKLALKYHPDKNPDNPEAADKFKEINNAHAILTDATKRNIYD", "note": "[Y20D]", "abundance fitness": "-0.053 ± 0.12"},
      {"variant": "LYHVLGLDKNATSDDIKKSRRKLALKYHPDKNPDNPEAADKFKEINNAHAILTDATKRNIYD", "note": "[Y20R]", "abundance fitness": "-0.148 ± 0.055"},
      {"variant": "LYHVLGLDKNATSDDIKKSSRKLALKYHPDKNPDNPEAADKFKEINNAHAILTDATKRNIYD", "note": "[Y20S]", "abundance fitness": "-0.086 ± 0.068"},
      {"variant": "LYHVLGLDKNATSDDIKKSCRKLALKYHPDKNPDNPEAADKFKEINNAHAILTDATKRNIYD", "note": "[Y20C]", "abundance fitness": "-0.182 ± 0.091"},
      {"variant": "LYHVLGLDKNATSDDIKKSGRKLALKYHPDKNPDNPEAADKFKEINNAHAILTDATKRNIYD", "note": "[Y20G]", "abundance fitness": "-0.189 ± 0.071"},
      {"variant": "LYHVLGLDKNATSDDIKKSERKLALKYHPDKNPDNPEAADKFKEINNAHAILTDATKRNIYD", "note": "[Y20E]", "abundance fitness": "0.2 ± 0.071"},
      {"variant": "LYHVLGLDKNATSDDIKKSPRKLALKYHPDKNPDNPEAADKFKEINNAHAILTDATKRNIYD", "note": "[Y20P]", "abundance fitness": "-0.093 ± 0.075"},
      {"variant": "LYHVLGLDKNATSDDIKKSYRKLAAKYHPDKNPDNPEAADKFKEINNAHAILTDATKRNIYD", "note": "[L25A]", "abundance fitness": "0.039 ± 0.066"}
    ]}
  ]
}
